Measurements: CN104892754A (INST OF MILITARY VETERINARY ACADEMY OF MILITARY MEDICAL …, dated 2015)

T1: 重组蛋白BontB(B型肉毒毒素轻链) (肉毒梭菌 (Clostridium botulinum), UniProt P10844 1-441)
T1 sequence: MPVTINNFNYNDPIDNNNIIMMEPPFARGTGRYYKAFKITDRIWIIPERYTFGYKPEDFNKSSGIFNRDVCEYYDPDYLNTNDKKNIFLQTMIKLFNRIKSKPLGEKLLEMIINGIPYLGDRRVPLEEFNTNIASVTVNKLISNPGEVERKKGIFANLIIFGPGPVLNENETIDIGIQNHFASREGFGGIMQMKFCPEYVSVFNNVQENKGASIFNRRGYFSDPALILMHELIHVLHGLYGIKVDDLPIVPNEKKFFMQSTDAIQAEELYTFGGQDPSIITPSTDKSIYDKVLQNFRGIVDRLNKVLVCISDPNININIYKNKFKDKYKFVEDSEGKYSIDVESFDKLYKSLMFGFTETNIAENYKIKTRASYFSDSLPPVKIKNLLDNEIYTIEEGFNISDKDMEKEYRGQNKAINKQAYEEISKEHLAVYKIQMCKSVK

B1: 3A-scFv (scFv)
scFv: EVQLLESGGGLVQPGGSLRLSCAASGFTFSSYAMSWVRQAPGKGLEWVSNISSNGNATAYADSVKGRFTISRNNSKNTLYLQMNSLRAEDTAVYYCAKYTYAFDYWGQGTLVTVSSGGGGSGGGGSGGGGSTDIQMTQSPSSLSASVGDRVTITCRASQSISSYLNWYQQKPGKAPKLLIYYASNLQSGVPSRFSGSGSGTDFTLTISSLQPEDFATYYCQQDSYTPSTFGQGTKVEIKRAAAHHHHHHGAAEQKLISEEDLNGAA
B2: 4C-scFv (scFv)
scFv: EVQLLESGGGLVQPGGSLRLSCAASGFTFSSYAMSWVRQAPGKGLEWVSGISPMGTRTSYADSVKGRFTISRDNSKNTLYLQMNSLRAEDTAVYYCAKNANGFDYWGQGTLVTVSSGGGGSGGGGSGGGGSTDIQMTQSPSSLSASVGDRVTITCRASQSISSYLNWYQQKPGKAPKLLIYRASVLQSGVPSRFSGSGSGETDFTLTISSLQPEDFATYYCQQRSRPPITFGQGTKVEIKRAAAHHHHHHGAAEQKLISEEDLNGAA
B3: 抗B型肉毒毒素酶活性的人源单链抗体2F-scFv (scFv)
scFv: EVQLLESGGGLVQPGGSLRLSCAASGFTFSSYAMSWVRQAPGKGLEWVSSIASTGSNTAYADSVKGRFTISRNNSKNTLYLQMNSLRAEDTAVYYCAKGTGTFDYWGQGTLVTVSSGGGGSGGGGSGGGGSTDIQMTQSPSSLSASVGDRVTITCRASQSISSYLNWYQQKPGKAPKLLIYTASYLQSGVPSRFSGSGSGTDFTLTISSLQPEDFATYYCQQATTSPYTFGQGTKVEIKRAAAHHHHHHGAEQKLISEEDLNGAA

target: T1, 重组蛋白BontB(B型肉毒毒素轻链)

Q: B1 was tested. Which Ka did it give?
A: Its Ka is 535000 M⁻¹.

Q: How did the Ka turn out when B2 was run?
A: Its Ka is 438000 M⁻¹.

Q: How did the Ka turn out when B3 was run?
A: Its Ka is 1.15e+06 M⁻¹.
